Experimental data as given in paper PMC5150538, “Structural basis of myelin-associated glycoprotein adhesion and signalling” (Nature Communications, 2016).
Residue numbers refer to the chain shown, from its start. Names may count otherwise.

Experiments:
SAXS = conditions: glycan lost; control: glycosylated wt MAG1–5
[1] = size exclusion chromatography; conditions: glycan lost; control: wt and other MAG constructs
[2] = sedimentation equilibrium AUC, monomer-dimer fit; conditions: glycan lost; control: glycosylated wt MAG1–5
[3] = molecular target: the molecule itself; experiment: SAXS; ESRF BM29, SEC buffer (150 mM NaCl, 20 mM HEPES pH 7.5), 20 °C (277 K for deglycosylated MAG1–5 N406Q), single concentration of 33-52 μM for each sample; monomer to dimer
[4] = molecular target: the molecule itself; experiment: AUC; sedimentation equilibrium, SEC buffer (150 mM NaCl, 20 mM HEPES pH 7.5), 20 °C, 7,500, 14,000 and 20,000 r.p.m., global analysis of several concentrations, speeds and wavelengths; monomer to dimer
[5] = molecular target: the molecule itself; experiment: SEC; Superdex200 Hiload 16/60, 150 mM NaCl, 20 mM HEPES pH 7.5

B1: Myelin-associated glycoprotein (MAG, Siglec4a): N406Q (protein)
parent chain: MIFLATLPLFWIMISASRGGHWGAWMPSTISAFEGTCVSIPCRFDFPDELRPAVVHGVWYFNSPYPKNYPPVVFKSRTQVVHESFQGRSRLLGDLGLRNCTLLLSTLSPELGGKYYFRGDLGGYNQYTFSEHSVLDIVNTPNIVVPPEVVAGTEVEVSCMVPDNCPELRPELSWLGHEGLGEPTVLGRLREDEGTWVQVSLLHFVPTREANGHRLGCQAAFPNTTLQFEGYASLDVKYPPVIVEMNSSVEAIEGSHVSLLCGADSNPPPLLTWMRDGMVLREAVAKSLYLDLEEVTPGEDGVYACLAENAYGQDNRTVELSVMYAPWKPTVNGTVVAVEGETVSILCSTQSNPDPILTIFKEKQILATVIYESQLQLELPAVTPEDDGEYWCVAENQYGQRATAFNLSVEFAPIILLESHCAAARDTVQCLCVVKSNPEPSVAFELPSRNVTVNETEREFVYSERSGLLLTSILTIRGQAQAPPRVICTSRNLYGTQSLELPFQGAHRLMWAKIGPVGAVVAFAILIAIVCYITQTRRKKNVTESSSFSGGDNPHVLYSPEFRISGAPDKYESEKQRLGSERRLLGLRGESPELDLSYSHSDLGKRPTKDSYTLTEELAEYAEIRVK
Q: Which “oligomerisation, other: Rg” value (SAXS) does the source give for B1 here?
A: increases, 7.3 vs 6.8

Q: What about the oligomerisation [1] of the same protein?
A: increases

B2: Myelin-associated glycoprotein (MAG, Siglec4a): Endo-Hf (protein)
parent chain: B1 parent chain
Q: For B2, which “oligomerisation, KD” value [2] is on record?
A: increases, 167 vs 382

Q: And the “oligomerisation, other: Rg” value (SAXS)?
A: increases, 7.3 vs 6.8

B3: MAG1–5 wt glycosylated (full extracellular segment of mouse myelin-associated glycoprotein) (domain or fragment, UniProt P20917 20-508, looked up)
chain: GHWGAWMPSTISAFEGTCVSIPCRFDFPDELRPAVVHGVWYFNSPYPKNYPPVVFKSRTQVVHESFQGRSRLLGDLGLRNCTLLLSTLSPELGGKYYFRGDLGGYNQYTFSEHSVLDIVNTPNIVVPPEVVAGTEVEVSCMVPDNCPELRPELSWLGHEGLGEPTVLGRLREDEGTWVQVSLLHFVPTREANGHRLGCQAAFPNTTLQFEGYASLDVKYPPVIVEMNSSVEAIEGSHVSLLCGADSNPPPLLTWMRDGMVLREAVAKSLYLDLEEVTPGEDGVYACLAENAYGQDNRTVELSVMYAPWKPTVNGTVVAVEGETVSILCSTQSNPDPILTIFKEKQILATVIYESQLQLELPAVTPEDDGEYWCVAENQYGQRATAFNLSVEFAPIILLESHCAAARDTVQCLCVVKSNPEPSVAFELPSRNVTVNETEREFVYSERSGLLLTSILTIRGQAQAPPRVICTSRNLYGTQSLELPFQGAHR
modifications: N-linked glycans (made in GnTI- cells); C-mannosylation on W22
notes: Myelin-associated glycoprotein (MAG), mouse, Ig domains 1-5, residues 20-508 (UniProt numbering, starts after the signal peptide); template mouse S-MAG cDNA; Vector pUPE107.03 with a cystatin secretion signal peptide and a C-terminal His6-tag; also called wt MAG1–5; MAG full ectodomain; source: HEK293 GnTI- EBNA1 cells in suspension, transient, secreted; purified (Ni-NTA, SEC)
Q: Which “fraction of dimer (OLIGOMER fit, monomer:dimer ratio at 52 μM)” value [3] does the source give for B3 here?
A: 0.28 fraction

Q: And the Kd [4]?
A: 382 µM

Q: And the “stoichiometry N” value [4]?
A: 2

B4: MAG1–5 N406Q glycosylated (domain or fragment, mouse, UniProt P20917 20-508, looked up)
chain: B3 chain with N387Q
modifications: N-linked glycans (made in GnTI- cells), lacks the N-linked glycan on residue 406
notes: Myelin-associated glycoprotein (MAG), mouse, Ig domains 1-5, residues 20-508 (UniProt numbering), with N406Q; also called N406Q mutant; source: HEK293 GnTI- EBNA1 cells in suspension, transient, secreted; purified (Ni-NTA, SEC)
Q: Does B4 bind [5]?
A: binds

B5: MAG1–5 wt deglycosylated (domain or fragment, mouse, UniProt P20917 20-508, looked up)
chain: B3 chain
modifications: N-linked glycans trimmed down to single N-Acetylglucosamines by Endo-Hf; C-mannosylation on W22
notes: Myelin-associated glycoprotein (MAG), mouse, Ig domains 1-5, residues 20-508 (UniProt numbering, starts after the signal peptide); template mouse S-MAG cDNA; Same construct as m1 after Endo-Hf treatment; also called deglycosylated MAG1–5; deglycosylated wt MAG1–5; source: HEK293 GnTI- EBNA1 cells in suspension, transient, secreted; purified (Ni-NTA, SEC); deglycosylated with Endo-Hf overnight at …
Q: For B5, which Kd [4] is on record?
A: 167 µM

Q: And the “stoichiometry N” value [4]?
A: 2

B6: MAG1–5 N406Q deglycosylated (domain or fragment, mouse, UniProt P20917 20-508, looked up)
chain: B3 chain with N387Q
modifications: N-linked glycans trimmed down to single N-Acetylglucosamines by Endo-Hf
notes: Myelin-associated glycoprotein (MAG), mouse, Ig domains 1-5, residues 20-508 (UniProt numbering), with N406Q; also called deglycosylated MAG1–5 N406Q; source: HEK293 GnTI- EBNA1 cells in suspension, transient, secreted; purified (Ni-NTA, SEC); deglycosylated with Endo-Hf
Q: Does B6 bind [3]?
A: binds
